Test results: US7422884B2, “Feedback-resistant mevalonate kinases” (DSM IP Assetts B.V., priority 2003, dated 2008)

Legend:
[1] = system: His6-tagged Paracoccus zeaxanthinifaciens mevalonate kinase; experiment: Feedback inhibition of mevalonate kinase by downstream products of the pathway; format: biochemical; conditions: 138 μM of the inhibitor; wild-type His6-tagged enzyme
Description: (§1) Enzymatic assays for measuring mevalonate kinase activity have been described, e.g., by Popák (Meth. Enzymol. 15, 393-, 1969), Gibson et al. (Enzyme 41, 47-55, 1989), Hinson et al. (J. Lipid Res. 38, 2216-2223, 1997), Schulte et al. (Anal. Biochem. 269, 245-254, 1999), or Cho et al. (J. Biol. Chem. 276, 12573-12578, 2001). For preparing mevalonate as substrate, 130 mg of DL-mevalonate lactone (FLUKA Chemie AG, Buchs, Switzerland) were dissolved in 5.5 ml of 0.2 M KOH and incubated for 15 min at 50° C. The solution was then adjusted to pH 7.0 by addition of 0.1 M HCl at room temperature (RT). Except if stated otherwise (see Example 3), the assay mixture consists of 100 mM K2HPO4/KH2PO4 (pH 7.0), 1 mM ATP, 2 mM MgCl2, 1 mM mevalonate, 0.5 mM phosphoenolpyruvate (PEP), 0.32 mM NADH, 20 U/ml pyruvate kinase and 27 U/ml lactate dehydrogenase (Sigma-Aldrich, St. Louis, Mo., USA). FPP, GGPP, IPP, DMAPP and GPP tested as inhibitors in the assay mixtures (at concentrations of 0-100 μM) were all purchased from Sigma. Upon addition of purified (His6-tagged) mevalonate kinase, enzymatic reaction reflected by consumption of NADH was followed by photometric measurement at 340 nm. One unit (1 U) of mevalonate kinase activity catalyzes the phosphorylation of 1 μmol of mevalonate per min.
(§2) Mevalonate was prepared as described in Example 2. The assay mixture consists of 100 mM K2HPO4/KH2PO4 (pH 7.0), 1 mM ATP, 1 mM mevalonate, 2 mM MgCl2, 0.5 mM phosphoenolpyruvate (PEP), 0.32 mM NADH, 20 U/ml pyruvate kinase and 27 U/ml lactate dehydrogenase (Sigma-Aldrich, St. Louis, Mo., USA). FPP, GGPP, IPP, DMAPP and GPP tested as inhibitors in the assay mixtures were all purchased from Sigma. 92 μM FPP or 17.6 μM GGPP were used for inhibition assays performed with the mevalonate kinase mutants. For the comparison of inhibition by FPP, GGPP, IPP, DMAPP and GPP, 138 μM of these intermediates were added (Example 9). Upon addition of purified (HiS6-tagged) mevalonate kinase, enzymatic reaction reflected by consumption of NADH was followed by photometric measurement at 340 nm.
Different mevalonate kinases were previously reported to be sensitive to feedback inhibition by the following downstream products of the mevalonate pathway: IPP, DMAPP, GPP, FPP, GGPP, phytyl-PP, farnesol, dolichol phosphate.

[2] = system: Paracoccus zeaxanthinifaciens mevalonate kinase; experiment: Mevalonate kinase activity assay (NADH-coupled photometric assay, specific activity of mutants); format: biochemical; conditions: purified His6-tagged enzyme, 1 mM ATP, 1 mM mevalonate, pH 7.0
Description: as §1, §2

[3] = system: Paracoccus zeaxanthinifaciens mevalonate kinase; experiment: Feedback resistance of mevalonate kinase mutants to FPP or GGPP; format: biochemical; conditions: feedback inhibitor FPP, 92 μM; relative to wild-type
Description: “Feedback resistance” shall mean any increase in resistance to “feedback inhibition” (as defined above). Feedback resistance can be analyzed in different ways known to those skilled in the art. An appropriate approach shall be described here shortly: mevalonate kinase activity is measured in an activity assay similar to the one described in Example 2 at non-saturating concentrations of ATP (or of another phosphate donor) and mevalonate (or mevalonate analogue), i.e., at ATP (or phosphate donor) and mevalonate (or mevalonate analogue) concentrations around which the reaction rate is sensitive to changes of these substrate concentrations, e.g. at concentrations around the respective Km values of the enzyme under investigation for these substrates. The activities of both wild-type mevalonate kinase and of a variant/mutant of this enzyme are measured under otherwise identical conditions both in the absence and presence of a relevant concentration of a feedback inhibitor, i.e., at a concentration of feedback inhibitor affording significant inhibition of the wild-type mevalonate kinase. […] Feedback resistance (%) is calculated as follows: if a and b are the measured mevalonate kinase activities of the wild-type enzyme in the absence and presence, respectively, of the feedback inhibitor (e.g., FPP), and if c and d are the measured mevalonate kinase activities of the mutant enzyme in the absence and presence, respectively, of the same feedback inhibitor, then % feedback resistance is: % resistance=100·((d/c)−(b/a))/(1−(b/a)) […]
Feedback resistance (%) is calculated as follows: if a and b are the measured mevalonate kinase activities of the wild-type enzyme in the absence and presence, respectively, of the feedback inhibitor (in this case, FPP), and if c and d are the measured mevalonate kinase activities of the mutant enzyme in the absence and presence, respectively, of the same feedback inhibitor, then % feedback resistance is: % resistance=100·((d/c)−(b/a))/(1−(b/a))

[4] = pH 8

Molecule | Inhibition of mevalonate kinase activity [1] [%] | Specific activity (% of wild-type) [2] | Feedback resistance (%) [3] [%] | Solubility / tendency to aggregate [4]
CC(C)=CCOP(=O)(O)OP(=O)(O)O [DMAPP, 3,3-dimethylallyl diphosphate] | 14.7 |  |  | 
CC(C)=CCC/C(C)=C/CC/C(C)=C/CC/C(C)=C/COP(=O)(O)OP(=O)(O)O [GGPP, geranylgeranyl diphosphate] | 98 |  |  | 
CC(C)=CCC/C(C)=C/COP(=O)(O)OP(=O)(O)O [GPP, geranyl diphosphate] | 18.6 |  |  | 
C=C(C)CCOP(=O)(O)OP(=O)(O)O [IPP, isopentenyl diphosphate] | 16.3 |  |  | 
WT: wild-type His6-tagged mevalonate kinase of Paracoccus zeaxanthinifaciens, SEQ ID NO:15 (protein, His6 tag; His6-Paracoccus zeaxanthinifaciens) MRGSHHHHHHSTGRPEAGAHAPGKLILSGEHSVLYGAPALAMAIARYTEVWFTPLGIGEGIRTTFANLSGGATYSLKLLSGFKSRLDRRFEQFLNGDLKVHKVLTHPDDLAVYALASLLHDKPPGTAAMPGIGAMHHLPRPGELGSRTELPIGAGMGSSAAIVAATTVLFETLLDRPKTPEQRFDRVRFCERLKHGKAGPIDAASVVRGGLVRVGGNGPGSISSFDLPEDHDLVAGRGWYWVLHGRPVSGTGECVSAVAAAHGRDAALWDAFAVCTRALEAALLSGGSPDAAITENQRLLERIGVVPAATQALVAQIEEAGGAAKICGAGSVRGDHGGAVLVRIDDAQAMASVMARHPDLDWAPLRMSRTGAAPGPAPRAQPLPGQG |  | 100 % of wild-type | 0 | pronounced tendency to aggregate/precipitate
G47D (protein, listed as Paracoccus zeaxanthinifaciens) MSTGRPEAGAHAPGKLILSGEHSVLYGAPALAMAIARYTEVWFTPLDIGEGIRTTFANLSGGATYSLKLLSGFKSRLDRRFEQFLNGDLKVHKVLTHPDDLAVYALASLLHDKPPGTAAMPGIGAMHHLPRPGELGSRTELPIGAGMGSSAAIVAATTVLFETLLDRPKTPEQRFDRVRFCERLKHGKAGPIDAASVVRGGLVRVGGNGPGSISSFDLPEDHDLVAGRGWYWVLHGRPVSGTGECVSAVAAAHGRDAALWDAFAVCTRALEAALLSGGSPDAAITENQRLLERIGVVPAATQALVAQIEEAGGAAKICGAGSVRGDHGGAVLVRIDDAQAMASVMARHPDLDWAPLRMSRTGAAPGPAPRAQPLPGQG |  | 121 % of wild-type | 32 | 
K93E (protein, listed as Paracoccus zeaxanthinifaciens) MSTGRPEAGAHAPGKLILSGEHSVLYGAPALAMAIARYTEVWFTPLGIGEGIRTTFANLSGGATYSLKLLSGFKSRLDRRFEQFLNGDLKVHEVLTHPDDLAVYALASLLHDKPPGTAAMPGIGAMHHLPRPGELGSRTELPIGAGMGSSAAIVAATTVLFETLLDRPKTPEQRFDRVRFCERLKHGKAGPIDAASVVRGGLVRVGGNGPGSISSFDLPEDHDLVAGRGWYWVLHGRPVSGTGECVSAVAAAHGRDAALWDAFAVCTRALEAALLSGGSPDAAITENQRLLERIGVVPAATQALVAQIEEAGGAAKICGAGSVRGDHGGAVLVRIDDAQAMASVMARHPDLDWAPLRMSRTGAAPGPAPRAQPLPGQG |  | 109 % of wild-type | 33 | 
